The values that follow come from the supplement of paper PMC5998384.

Data set [1] relates to HeLa Kyoto. Nature of the data set: thermal stability score vs G1/S (z-score of summed log2 fold changes over temperatures); higher = more thermally stable than in G1/S.
Data set [2] has as its system HeLa Kyoto. Nature of the data set: solubility in G1/S (NP-40 vs SDS abundance) (log2 ratio); higher = more soluble. The note with it: cell cycle stage: G1/S.
For data set [3], the system named is HeLa Kyoto. Nature of the data set: solubility change mitosis vs G1/S (difference of NP-40 vs SDS log2 ratios) (log2 ratio difference); higher = more soluble in mitosis.
Data set [4] relates to HeLa Kyoto. Nature of the data set: melting temperature (median over replicates), in situ; higher = more thermally stable.
Setting [5] is: cell cycle stage: early G1 (4.5 h after nocodazole release).
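Wherever melting temperature (median over replicates), in situ is given: HeLa Kyoto cells synchronized by double thymidine or nocodazole block, proteins quantified by TMT10plex mass spectrometry, three independent biological replicates.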
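Wherever solubility change mitosis vs G1/S (difference of NP-40 vs SDS log2 ratios) is given: synchronized HeLa Kyoto cells (double thymidine block for G1/S, nocodazole release for mitosis), protein amounts in NP-40 versus SDS lysates quantified by mass spectrometry, three biological replicates.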
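Wherever solubility in G1/S (NP-40 vs SDS abundance) is given: HeLa Kyoto cells arrested at G1/S by double thymidine block, proteins quantified by TMT10plex mass spectrometry in mild NP-40 versus SDS extracts, three biological replicates.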
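Wherever thermal stability score vs G1/S (z-score of summed log2 fold changes over temperatures) is given: synchronized HeLa Kyoto cells, proteins quantified by TMT10plex mass spectrometry, three biological replicates, mitosis taken 0.5 h after nocodazole release, G1/S directly after double thymidine block.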

For “MGNCCWTQCFGLLRKEAGRLQRVGGGGGSKYFRTCSRGEHLTIEFENLVESDEGESPGSSHRPLTEEEIVDLRERHYDSIAEKQKDLDKKIQKELALQEEKLRLEEEALYAAQREAARAAKQRKLLEQERQRIVQQYHPSNNGEYQSSGPEDDFESCLRNMKSQYEVFRSSRLSSDATVLTPNTESSCDLMTKTKSTSGNDDSTSLDLEWEDEEGMNRMLPMRERSKTEEDILRAALKYSNKKTGSNPTSASDDSNGLEWENDFVSAEMDDNGNSEYSGFVNPVLELSDSGIRHSDTDQQTR [AP1AR]”, the thermal stability score in the data set on HeLa Kyoto [1] (setting [5]) is -0.31; with HeLa Kyoto [1] (cell cycle stage: mitosis), -1.09. Further, the “solubility in G1/S (log2)” value in the data set on HeLa Kyoto [2] turned out to be 0.104. For the same sequence, the “solubility change mitosis (log2)” value in the data set on HeLa Kyoto [3] was -0.24. In addition, the melting temperature in the data set with HeLa Kyoto [4] (cell cycle stage: mitosis) is 59.6 °C.

For the sequence “MGNGGRSGLQQGKGNVDGVAATPTAASASCQYRCIECNQEAKELYRDYNHGVLKITICKSCQKPVDKYIEYDPVIILINAILCKAQAYRHILFNTQINIHGKLCIFCLLCEAYLRWWQLQDSNQNTAPDDLIRYAKEWDFYRMFAIAALEQTAYFIGIFTFLWVERPMTAKKKPNFILLLKALLLSSYGKLLLIPAVIWEHDYTSVCLKLIKVFVLTSNFQAIRVTLNINRKLSFLAVLSGLLLESIMVYFFQSMEWDVGSDYAIFKSQDF [ARV1]”, the thermal stability score is -0.687 in the data set with HeLa Kyoto [1] (setting [5]) and -0.97 in the data set on HeLa Kyoto [1] (cell cycle stage: mitosis). For the same sequence, the “solubility in G1/S (log2)” value in the data set on HeLa Kyoto [2] is -0.481. The “solubility change mitosis (log2)” value in the data set on HeLa Kyoto [3] was -0.0477. In addition, in the data set with HeLa Kyoto [4] (cell cycle stage: mitosis), the melting temperature came to 49.2 °C.

Turning to “MGNLLKVLTCTDLEQGPNFFLDFENAQPTESEKEIYNQVNVVLKDAEGILEDLQSYRGAGHEIREAIQHPADEKLQEKAWGAVVPLVGKLKKFYEFSQRLEAALRGLLGALTSTPYSPTQHLEREQALAKQFAEILHFTLRFDELKMTNPAIQNDFSYYRRTLSRMRINNVPAEGENEVNNELANRMSLFYAEATPMLKTLSDATTKFVSENKNLPIENTTDCLSTMASVCRVMLETPEYRSRFTNEETVSFCLRVMVGVIILYDHVHPVGAFAKTSKIDMKGCIKVLKDQPPNSVEGLLNALRYTTKHLNDETTSKQIKSMLQ [FAM49B]”, the thermal stability score with HeLa Kyoto [1] (setting [5]) stood at 1.27; with HeLa Kyoto [1] (cell cycle stage: mitosis), 0.808. For the same sequence, the “solubility in G1/S (log2)” value in the data set with HeLa Kyoto [2] came out at 0.31. Also, the “solubility change mitosis (log2)” value in the data set with HeLa Kyoto [3] came to 0.0154. Besides, the melting temperature in the data set on HeLa Kyoto [4] (cell cycle stage: G1/S) and in the data set with HeLa Kyoto [4] (cell cycle stage: mitosis) was 54.2 °C throughout.

As to “MGPGPSRAPRAPRLMLCALALMVAAGGCVVSAFNLDTRFLVVKEAGNPGSLFGYSVALHRQTERQQRYLLLAGAPRELAVPDGYTNRTGAVYLCPLTAHKDDCERMNITVKNDPGHHIIEDMWLGVTVASQGPAGRVLVCAHRYTQVLWSGSEDQRRMVGKCYVRGNDLELDSSDDWQTYHNEMCNSNTDYLETGMCQLGTSGGFTQNTVYFGAPGAYNWKGNSYMIQRKEWDLSEYSYKDPEDQGNLYIGYTMQVGSFILHPKNITIVTGAPRHRHMGAVFLLSQEAGGDLRRRQVLEGSQVGAYFGSAIALADLNNDGWQDLLVGAPYYFERKEEVGGAIYVFMNQAGTSFPAHPSLLLHGPSGSAFGLSVASIGDINQDGFQDIAVGAPFEGLGKVYIYHSSSKGLLRQPQQVIHGEKLGLPGLATFGYSLSGQMDVDENFYPDLLVGSLSDHIVLLRARPVINIVHKTLVPRPAVLDPALCTATSCVQVELCFAYNQSAGNPNYRRNITLAYTLEADRDRRPPRLRFAGSESAVFHGFFSMPEMRCQKLELLLMDNLRDKLRPIIISMNYSLPLRMPDRPRLGLRSLDAYPILNQAQALENHTEVQFQKECGPDNKCESNLQMRAAFVSEQQQKLSRLQYSRDVRKLLLSINVTNTRTSERSGEDAHEALLTLVVPPALLLSSVRPPGACQANETIFCELGNPFKRNQRMELLIAFEVIGVTLHTRDLQVQLQLSTSSHQDNLWPMILTLLVDYTLQTSLSMVNHRLQSFFGGTVMGESGMKTVEDVGSPLKYEFQVGPMGEGLVGLGTLVLGLEWPYEVSNGKWLLYPTEITVHGNGSWPCRPPGDLINPLNLTLSDPGDRPSSPQRRRRQLDPGGGQGPPPVTLAAAKKAKSETVLTCATGRAHCVWLECPIPDAPVVTNVTVKARVWNSTFIEDYRDFDRVRVNGWATLFLRTSIPTINMENKTTWFSVDIDSELVEELPAEIELWLVLVAVGAGLLLLGLIILLLWKCGFFKRARTRALYEAKRQKAEMKSQPSETERLTDDY [ITGA3]”, the thermal stability score was -0.693 with HeLa Kyoto [1] (setting [5]) and -1.42 with HeLa Kyoto [1] (cell cycle stage: mitosis). In the data set on HeLa Kyoto [2], the “solubility in G1/S (log2)” value is 0.0349. Besides, the “solubility change mitosis (log2)” value in the data set with HeLa Kyoto [3] came to 0.0722. The figures for the melting temperature with HeLa Kyoto [4] (cell cycle stage: G1/S) and in the data set with HeLa Kyoto [4] (cell cycle stage: mitosis) were 56.8 °C and 59.2 °C, respectively.

In the case of “MGRDTRSRSRSAGRRGRRRQSQSGSRSRSRSHGRRNRRRREDEGRRRRRRRSRERRSDSEEERWQRSGMRSRSPPRPKWHSRDGSSQSDSGEEQSRGQWARRRRRARSWSPSSSASSSASPGRSQSPRAAAAALSQQQSLQERLRLREERKQQEELMKAFETPEEKRARRLAKKEAKERKKREKMGWGEEYMGYTNTDNPFGDNNLLGTFIWNKALEKKGISHLEEKELKERNKRIQEDNRLELQKVKQLRLEREREKAMREQELEMLQREKEAEHFKTWEEQEDNFHLQQAKLRSKIRIRDGRAKPIDLLAKYISAEDDDLAVEMHEPYTFLNGLTVADMEDLLEDIQVYMELEQGKNADFWRDMTTITEDEISKLRKLEASGKGPGERREGVNASVSSDVQSVFKGKTYNQLQVIFQGIEGKIRAGGPNLDMGYWESLLQQLRAHMARARLRERHQDVLRQKLYKLKQEQGVESEPLFPILKQEPQSPSRSLEPEDAAPTPPGPSSEGGPAEAEVDGATPTEGDGDGDGEGEGEGEAVLMEEDLIQQSLDDYDAGRYSPRLLTAHELPLDAHVLEPDEDLQRLQLSRQQLQVTGDASESAEDIFFRRAKEGMGQDEAQFSVEMPLTGKAYLWADKYRPRKPRFFNRVHTGFEWNKYNQTHYDFDNPPPKIVQGYKFNIFYPDLIDKRSTPEYFLEACADNKDFAILRFHAGPPYEDIAFKIVNREWEYSHRHGFRCQFANGIFQLWFHFKRYRYRR [CACTIN]”, the thermal stability score in the data set on HeLa Kyoto [1] (setting [5]) amounted to 0.527; in the data set with HeLa Kyoto [1] (cell cycle stage: mitosis), 0.928. Moreover, the “solubility in G1/S (log2)” value in the data set with HeLa Kyoto [2] was -0.924. Also, the “solubility change mitosis (log2)” value in the data set on HeLa Kyoto [3] came out at 0.985. The figures for the melting temperature in the data set with HeLa Kyoto [4] (cell cycle stage: G1/S) and in the data set with HeLa Kyoto [4] (cell cycle stage: mitosis) were 47.9 °C and 50.4 °C, respectively.

With “MGRGWGFLFGLLGAVWLLSSGHGEEQPPETAAQRCFCQVSGYLDDCTCDVETIDRFNNYRLFPRLQKLLESDYFRYYKVNLKRPCPFWNDISQCGRRDCAVKPCQSDEVPDGIKSASYKYSEEANNLIEECEQAERLGAVDESLSEETQKAVLQWTKHDDSSDNFCEADDIQSPEAEYVDLLLNPERYTGYKGPDAWKIWNVIYEENCFKPQTIKRPLNPLASGQGTSEENTFYSWLEGLCVEKRAFYRLISGLHASINVHLSARYLLQETWLEKKWGHNITEFQQRFDGILTEGEGPRRLKNLYFLYLIELRALSKVLPFFERPDFQLFTGNKIQDEENKMLLLEILHEIKSFPLHFDENSFFAGDKKEAHKLKEDFRLHFRNISRIMDCVGCFKCRLWGKLQTQGLGTALKILFSEKLIANMPESGPSYEFHLTRQEIVSLFNAFGRISTSVKELENFRNLLQNIH [ERO1A]”, the thermal stability score is 5.02 in the data set with HeLa Kyoto [1] (setting [5]) and 7.63 with HeLa Kyoto [1] (cell cycle stage: mitosis). Further, the “solubility in G1/S (log2)” value in the data set with HeLa Kyoto [2] was found to be 0.338. In addition, the “solubility change mitosis (log2)” value in the data set with HeLa Kyoto [3] is -0.161. Besides, the melting temperature is 54.2 °C in the data set with HeLa Kyoto [4] (cell cycle stage: G1/S) and 54.6 °C in the data set on HeLa Kyoto [4] (cell cycle stage: mitosis).
